T1: 人CD 19 (细胞表面上表达: Raji、Daudi、ARH-77细胞, 人CD 19转染的CHO细胞) (human, UniProt P15391 20-556)
T1 construct: CD19 on the surface of B cell tumour lines (endogenous) or of CHO cells transfected with full-length cDNA of the transmembrane form; it is not tied word for word to the cells used; also called CHO-CD 19; CD 19-CHO
T1 sequence: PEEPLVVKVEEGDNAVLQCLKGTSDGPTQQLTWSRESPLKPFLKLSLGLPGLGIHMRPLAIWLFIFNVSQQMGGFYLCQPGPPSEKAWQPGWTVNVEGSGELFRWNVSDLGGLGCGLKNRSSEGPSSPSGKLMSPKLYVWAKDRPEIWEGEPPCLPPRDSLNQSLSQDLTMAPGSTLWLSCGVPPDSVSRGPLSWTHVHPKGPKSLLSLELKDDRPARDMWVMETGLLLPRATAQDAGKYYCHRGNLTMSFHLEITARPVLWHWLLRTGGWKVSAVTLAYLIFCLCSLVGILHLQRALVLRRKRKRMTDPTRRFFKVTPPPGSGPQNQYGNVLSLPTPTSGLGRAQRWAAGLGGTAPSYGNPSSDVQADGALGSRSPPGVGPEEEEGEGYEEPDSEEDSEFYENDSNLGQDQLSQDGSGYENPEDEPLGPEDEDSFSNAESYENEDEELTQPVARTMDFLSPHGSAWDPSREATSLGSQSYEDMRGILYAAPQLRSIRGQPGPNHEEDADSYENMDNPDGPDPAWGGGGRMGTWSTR

B1: 抗CD 19人单克隆抗体47G4 (antibody, V domains shown)
VH: QVQLVQSGAEVKKPGSSVKVSCKDSGGTFSSYAISWVRQAPGQGLEWMGGIIPIFGTTNYAQQFQGRVTITADESTSTAYMELSSLRSEDTAVYYCAREAVAADWLDPWGQGTLVTVSS
VL: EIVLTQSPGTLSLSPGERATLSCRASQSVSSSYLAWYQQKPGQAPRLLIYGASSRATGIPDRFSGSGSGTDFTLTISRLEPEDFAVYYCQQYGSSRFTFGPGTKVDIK
notes: 125I-labelled in the Scatchard assay; also called HuMAb 47G4; CD 19 HuMab 47G4
B2: 抗CD 19人单克隆抗体21D4 (antibody, V domains shown)
VH: EVQLVQSGAEVKKPGESLKISCKGSGYSFSSSWIGWVRQMPGKGLEWMGIIYPDDSDTRYSPSFQGQVTISADKSIRTAYLQWSSLKASDTAMYYCARHVTMIWGVIIDFWGQGTLVTVSS
VL: AIQLTQSPSSLSASVGDRVTITCRASQGISSALAWYQQKPGKAPKLLIYDASSLESGVPSRFSGSGSGTDFTLTISSLQPEDFATYYCQQFNSYPYTFGQGTKLEIK
notes: Human monoclonal antibody from KM mouse hybridoma; also called HuMAb 21D4; HuMab 21D4

Biological target: T1, 人CD 19 (细胞表面上表达: Raji、Daudi、ARH-77细胞, …)
Assay: Scatchard analysis, 125I-labelled antibody on Raji cells

Binder | Kd [nM]
B1 | ~12
B2 | ~2.14

Source: patent publication CN101233156A (MEDAREX INC, dated 2008)
